Experimental data: US20030060416A1 (IDUN PHARMACEUTICALS, published 2003)

B1: murine Blk (Bik-like killer), wild type (other)
chain: MSEARLMARDVIKTVPHDQVPQPPVASETPSMKEPVRDVDLMECVEGRNQVALRLACIGDEMDLCLRSPRLVQLPGIAIHRLAVTYSRTGVRGIFRSLIRSLTNLRENIWSWRVLTPGAWVSPDQDPGQLFPMVLLVFLLLGGAWYLQLQ
modifications: 35S-labeled (in vitro translated in rabbit reticulocyte lysate) in the GST pull-down
notes: Protein of 150 amino acids; Used 35S-labeled from in vitro transcription/translation in the pull-downs, and expressed from pRSC-LacZ in the apoptosis assays; also called 35S-labeled Blk; wild type Blk
B2: Bik (other, human, UniProt Q13323 1-160, looked up)
chain: MSEVRPLSRDILMETLLYEQLLEPPTMEVLGMTDSEEDLDPMEDFDSLECMEGSDALALRLACIGDEMDVSLRAPRLAQLSEVAMHSLGLAFIYDQTEDIRDVLRSFMDGFTTLKENIMRFWRSPNPGSWVSCEQVLLALLLLLALLLPLLSGGLHLLLK
modifications: 35S-labeled (in vitro translated)
notes: also called human Bik/Nbk; 35S-labeled Bik
B3: mutant Blk-DG59-D60 (Gly59 and Asp60 deleted) (other)
chain: MSEARLMARDVIKTVPHDQVPQPPVASETPSMKEPVRDVDLMECVEGRNQVALRLACIEMDLCLRSPRLVQLPGIAIHRLAVTYSRTGVRGIFRSLIRSLTNLRENIWSWRVLTPGAWVSPDQDPGQLFPMVLLVFLLLGGAWYLQLQ
modifications: 35S-labeled (in vitro translated) in the GST pull-down
notes: Cloned in pFLAG CMV-2 and the pRSC vector; also called M2

Tests used:
Test in all cases: GST pull-down of 35S-labeled protein on glutathione-Sepharose beads
[1] = target: T1, glutathione S-transferase (GST) control (UniProt P08515 1-218 = GST)
T1 construct: Control protein immobilized on glutathione-Sepharose beads
Method: (§1) After 36 h, extracts are prepared and immunoprecipitated with a monoclonal antibody to the Flag-epitope. The immunoprecipitates (upper panel) and the corresponding cellular lysates (lower panel) are analyzed by SDS-PAGE and immunoblotted with a HRP-conjugated T7-antibody. IP, immunoprecipitates. (C) Mutations in the BH3 domain of Blk abrogate its ability to interact with Bcl-2 and Bcl-xL. 35S-labeled wild type Blk, mutant Blk-DG59 (M1) or mutant Blk-DG59-D60 (M2) (lane 1, input) are precipitated with GST (lane 2), GST-Bcl-2 (lane 3), or GST-Bcl-xL (lane 4) and then analyzed by SDS-PAGE and Coomassie staining to detect the GST fusion proteins (lower panel) and autoradiography to detect the interacting labeled proteins (upper panel). (D) Mutations in the BH3 domain of Blk abrogate its proapoptotic activity. MCF-7 cells are transfected with the indicated plasmids and then assayed for apoptosis as in FIG. 3A.
(§2) Blk binds Bcl-2 and Bcl-xL. All the proapoptotic Bcl-2 family members can heterodimerize with Bcl-2 and Bcl-xL. To determine whether Blk can also bind to Bcl-2 or Bcl-xL, in vivo and in vitro binding studies are performed. Bcl-2 and Bcl-xL are constructed as GST fusion proteins inpGEX-4T-2 and pGEX-2T, respectively, by placing the coding sequence of Bcl-2 or Bcl-XL in frame C-terminal to the GST protein (Pharmacia). GST fusion proteins are expressed in E. coli and purified by affinity chromatography on a glutathione-coupled substrateGlutathione Sepharose 4B (Pharmacia). ³⁵S-labeled (Blk, Bik, Bax) proteins are expressed in vitro using a coupled transcription/translation system in rabbit reticulocyte lysate (TNT Kit; Promega). In vitro protein-protein interactions are carried out according to Boyd et. al. (supra). Briefly, labeled proteins are precleared by mixing with glutathione-coupled Sepharose beads, which are then removed by centrifugation. The supernatants are incubated with GST-Bcl-2, GST-Bcl-xL or GST immobilized on glutathione-coupled Sepharose beads for 2 h at 4° C. After extensive washing, proteins are recovered by boiling the beads in SDS-sample buffer and analyzed on 12% SDS-PAGE.
(§3) ³⁵S-labeled Blk, Bik or Bax are precipitated with glutathione S-transferase (GST), GST-Bcl-2 or GST-Bcl-xL fusion proteins immobilized on glutathione-Sepharose beads (FIG. 5A).

[2] = target: T2, GST-Bcl-xL fusion protein (human, UniProt P08515 1-218 = GST; Q07817 1-233)
T2 construct: Expressed in E. coli and immobilized on Glutathione Sepharose 4B beads
Method: as §1, §2, §3

GST-Bcl-2 fusion protein = target: T3, GST-Bcl-2 fusion protein (human, UniProt P08515 1-218 = GST; P10415 1-239)
T3 construct: Expressed in E. coli and immobilized on Glutathione Sepharose 4B beads
Method: as §1, §2, §3

T1 sequence (P08515 whole entry): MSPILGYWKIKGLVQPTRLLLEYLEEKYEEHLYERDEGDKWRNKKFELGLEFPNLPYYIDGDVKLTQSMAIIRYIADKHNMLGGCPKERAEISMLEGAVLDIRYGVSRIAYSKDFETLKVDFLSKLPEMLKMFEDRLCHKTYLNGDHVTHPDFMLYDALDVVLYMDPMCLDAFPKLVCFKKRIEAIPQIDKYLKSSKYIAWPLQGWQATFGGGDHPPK
T2 sequence (P08515 1-218, tags or fused parts left off): as the sequence (P08515 whole entry) above
T3 sequence (P08515 1-218, tags or fused parts left off): as the sequence (P08515 whole entry) above

| Binder | binding result [1] | binding result [2] | binding result (GST-Bcl-2 fusion protein) |
| --- | --- | --- | --- |
| B1 | no binding |  |  |
| B2 | no binding |  |  |
| B3 |  | no binding | no binding |
